Results published in US20240294624A1, “ANTI-ERYTHROPOIETIN ANTIBODY” (ANDREMACON S.R.L., priority 2021, published 2024).

Assays:
HOC84 stem cells = conditions: naturally resistant to carboplatin, 96 h, CPT 40 μg/mL
Method: HOC84, which are naturally resistant to carboplatin (CPT), were cultured for 96 h in basal condition supplemented with 40 μg/mL of CPT. Cell viability was assessed by 3-(4,5-Dimethylthiazol-2-yl)-2,5-Diphenyl-tetrazoliumBromide (MTT) assay, as a function of redox potential (FIG. 24). […] Then, culture media were replaced with fresh media containing the specific treatments, or in BM as a control condition (CTR).
Test was performed in triplicate after 96 h of treatment, by replacing culture media with 100 μL of fresh media added with 10 μL of MTT 5 mg/ml in D-PBS. After 4 h of incubation, media were removed and cells were lysed with 100 μL of 2-propanol/formic acid (95:5, by vol) for 10 min.

primary GECs = experiment: MTT cell viability assay; format: cell-based, human; conditions: 96 hours, anti-EPO (C4) 6 μg/ml, TMZ 100 μM, FTY720 100 nM
Description: B. Primary glioblastoma endothelial cells (GECs).

K562 [1] = experiment: MTT cell viability assay; format: cell-based, human; conditions: 96 hours, 6 μg/ml
Description: H. Myelogenous leukemia cell line (K562); chronic myeloid leukemia cells. Circulating […] levels are reliably higher in myelodysplastic syndromes than in healthy people, with a negative predictive role;

N9 microglia cells = experiment: Microglia viability, trypan blue; format: cell-based, murine; conditions: 48 hours of culture
Method: N9 cells were cultured in Iscove's Modified Dulbecco's MEM, IMDM containing streptomycin/1× penicillin and 2 mM L-glutamine, supplemented with FBS (fetal bovine serum) at 5%. The cells were plated at a concentration of 1.5×10^4 cells/cm2 and kept in a thermostatic incubator at 37° C., with 5% CO2, for 24 hours. The next day, the cells were exposed to different treatments for 48 hours. At the end of the treatments, cell viability was assessed by staining with trypan blue. The microglia was maintained in a basal culture medium and then activated with lipopolysaccharide (LPS), a molecule present on the membrane of the Gram-negative bacteria. Furthermore, to study the role of the product “anti-EPO (C4)” in the inhibition of neuroinflammation and then in the inhibition of the activation of microglia, the antibody according to the scheme below was administered, in association and not with LPS, to activate microglia. […]
N9 cells were cultured in Iscove's Modified Dulbecco's MEM, IMDM containing streptomycin/1× penicillin and 2 mM L-glutamine, supplemented with FBS (fetal bovine serum) at 5%. […] At the end of the treatments, cell viability and proliferation were assessed by staining with trypan blue and observed under the microscope for counting. […]

[2] = test system: human tumor GSC-derived xenograft; experiment: Gene expression of GSC-derived xenograft after in vivo treatment; set-up: species or system mice; conditions: xenograft GSCs; RealTime PCR
Method: The analysis was performed by the assessment of gene expression profile on human tumor GSC-derived xenograft. Gene expression analysis were conducted by Real-Time PCR, run in triplicate, using 18S as endogenous control. Samples have been normalized to untreated CTRL. The analysis was conducted on genes related to FIG. 30A apoptosis, FIG. 30B inflammation, FIG. 30C proliferation.
Tissues were processed and total RNA was extracted following TRI-Reagent protocol and quantified with NanoDrop 1000 Spectro-photometer (Thermo Fisher Scientific). Reverse transcriptase reaction was executed using TranScriba Kit (A&A Biotechnology), loading 1 μg of RNA (A260/A280>1.8), according to manufacturer's instructions. qRT-PCR was performed using StepOnePlus™ (Thermo Fisher Scientific), 1 μg of cDNA, forward and reverse human primers (250 nM each) Titan HotTaq EvaGreen® qPCR Mix (Bioatlas). Data were normalized to 18S expression, used as endogenous control. Relative gene expression was determined using the 2-ΔΔCt method (FIG. 30).

DLD1 = experiment: Caspase Glo 3/7 assay; format: cell-based, human
Method: (§1) Furthermore, cellular models were treated the above-mentioned pharmacological drugs and apoptotic effect was evaluated by caspase activity.
(§2) Data are expressed as the mean±standard deviation of at least 3 experiments in triplicate. *P<0.05 versus CTR for all treatments tested.

A549 = experiment: Caspase Glo 3/7 assay; format: cell-based, human
Method: as §1, §2

LNCAP = experiment: Caspase Glo 3/7 assay; format: cell-based, human
Method: as §1, §2

GSCs = experiment: Caspase Glo 3/7 assay; format: cell-based, human
Method: as §1, §2

PC-3 = experiment: Caspase Glo 3/7 assay; format: cell-based, human
Method: as §1, §2

K562 [3] = experiment: Caspase Glo 3/7 assay; format: cell-based, human
Method: as §1, §2

A2780 = experiment: Caspase Glo 3/7 assay; format: cell-based, human
Method: as §1, §2

GBM-CSCs = experiment: Caspase Glo 3/7 assay; format: cell-based, human
Method: as §1, §2

SHSY-5Y = experiment: Caspase Glo 3/7 assay; format: cell-based, human
Method: as §1, §2

[4] = test system: anaplastic astrocytoma cancer stem cells; experiment: Caspase Glo 3/7 assay; format: cell-based, human
Method: as §1, §2

MCF-7 = experiment: Caspase Glo 3/7 assay; format: cell-based, human
Method: as §1, §2

GECs = experiment: Caspase Glo 3/7 assay; format: cell-based, human
Method: as §1, §2

B1: anti-EPO (C4): isolated anti-Erythropoietin monoclonal antibody, VL SEQ ID NO:6, VH SEQ ID NO:14, hybridoma DSM ACC 3370 (antibody, listed as Homo sapiens, V domains shown)
VH: EVKLQESGGGLVQPGGSLKLSCAASGFTFSTYTMSWVRQTPEKRLEWVAYISNGGDRTYYPDTVKGRFTISRDDAKNTLFLQMSSLKSEDTAMYYCARHNITTVPFTMDYWGQGTSVTVSS
VL: DIVLTQSPASLAVSLGQRATISCRASESVDYYGTGLMQWYQQRPGQPPKLLIYGASNVGSGVPARFSGSGSGTDFSLNIHPVEGDDIAMYFCQQTRKVPSTFGGGTKLEIK
modifications: VH amino acid sequence; VL amino acid sequence
mortality (HOC84 stem cells): 66% | cells initially seeded dead (primary GECs): ~70% | cells initially plated dead (K562 [1]): 62% | viability (N9 microglia cells): higher than 85% | gene expression on tumoral cells after in vivo treatment [2]: induced inhibition cancer stem cell proliferation, increase apoptosis and inflammation | increment of apoptosis (caspase 3/7 activation) (DLD1): 217% | increment of apoptosis (caspase 3/7 activation) (A549): 200% | increment of apoptosis (caspase 3/7 activation) (LNCAP): 220% | increment of apoptosis (caspase 3/7 activation) (GSCs): 200% | increment of apoptosis (caspase 3/7 activation) (PC-3): 243% | increment of apoptosis (caspase 3/7 activation) (K562 [3]): 180% | increment of apoptosis (caspase 3/7 activation) (A2780): 234% | increment of apoptosis (caspase 3/7 activation) (GBM-CSCs): 210% | increment of apoptosis (caspase 3/7 activation) (SHSY-5Y): 200% | increment of apoptosis (caspase 3/7 activation) [4]: 205% | increment of apoptosis (caspase 3/7 activation) (MCF-7): 218% | increment of apoptosis (caspase 3/7 activation) (GECs): 220%
